Test results: the RNAGym collection of RNA variant scans (doi:10.7554/elife.90254)

B1: LINE1-mini (parent)
chain: GGCAGAGCUCAACACAGCGUGGCAAAGUGGCUGUGGCUAGACUGCC

Variants of: B1
Assay: self-cleavage, relative activity (ratio to wild type); higher = more cleavage; in vitro, sequencing; the parent is a self-cleaving ribozyme

Row | Variant | self-cleavage
1 | G22C U38G | 0.05
2 | C18U G44C | 0.28
3 | C13G G21U | 0.31
4 | G2U A11G | 0.02
5 | G22U U32C | 0.6
6 | G5A A25G | 0.14
7 | A25G U28G | 0.57
8 | G17C C45A | 0.16
9 | U9G A26C | 0.21
10 | A11C G40U | 0.02
11 | C15A C18G | 0.09
12 | C15A | 0.1
13 | C10G C46G | 0.05
14 | C10G C46A | 0.09
15 | C31U G36U | 0.06
16 | A26G G36U | 0.12
17 | A4G U28A | 0.13
18 | G17C G21U | 1.65
19 | U20C U43G | 0.01
20 | C8U G19A | 0.35
21 | A12G G27C | 0.03
22 | G27A G33U | 0.17
23 | G7U A11U | 0.04
24 | G27A U34A | 0.19

Row | Variant | self-cleavage
25 | C3G G21A | 1.1
26 | G33A U43C | 0.05
27 | G33A U43G | 0.13
28 | A12U G22U | 0.29
29 | G5U G7U | 0.13
30 | G30A C37A | 0.05
31 | A12U C31A | 0.04
32 | A6C A39G | 0.1
33 | G5U A41G | 0.06
34 | G2U G17A | 0.03
35 | C13G G35U | 0.85
36 | U20G A24G | 0.61
37 | C8A G36A | 0.65
38 | U43C | 0.14
39 | G29U C31A | 0.15
40 | G2C A14C | 0.06
41 | G2U A26G | 0.13
42 | G33A U38C | 0.17
43 | G5U G22A | 0.16
44 | C10U G44U | 0.13
45 | U9G C46U | 0.11
46 | G21U C46A | 1.14
47 | A11U A14C | 0.01
48 | U34C G36A | 0.09

Row | Variant | self-cleavage
49 | G5C C37G | 0.05
50 | G1U G35U | 0.17
51 | G7A C23G | 0.21
52 | G7U A26G | 0.05
53 | C18U G22C | 1.47
54 | A4C G5A | 0.12
55 | A25C U38C | 0.46
56 | C15U U28A | 1.35
57 | A6U G44U | 0.54
58 | A6G A24U | 0.19
59 | A16C C23G | 0.08
60 | G7A G27C | 0.18
61 | G7C G19C | 0.05
62 | U28G U38C | 1.1
63 | U34A C46U | 0.09
64 | U20A A41C | 0.05
65 | G33C C37G | 0.04
66 | C45A C46A | 0.24
67 | C8A G19U | 0.11
68 | G29U G36C | 0.1
69 | C10U U32C | 0.1
70 | G5C A24G | 0.06
71 | C37U G40A | 0.14
72 | C13A C37A | 0.09

Row | Variant | self-cleavage
73 | C37G U38A | 0.03
74 | A16U A26U | 0.13
75 | C10U G40C | 0.04
76 | G17A G33C | 0.04
77 | U20G G33U | 0.08
78 | A16G C45G | 0.11
79 | A16G C18G | 0.04
80 | A6U A26G | 0.31
81 | G17A C42A | 0.07
82 | C15G C31U | 0.04
83 | A12C U43A | 0.03
84 | C10A G22U | 0.07
85 | G1U C31G | 0.04
86 | A26U U28C | 0.74
87 | G1A G27C | 0.86
88 | A12C C37U | 0.02
89 | A12C C37A | 0.02
90 | C3A U28G | 0.42
91 | A4C A26G | 0.15
92 | G1U G36U | 0.11
93 | A6U C46A | 0.74
94 | A24U U43G | 0.03
95 | G5U U32G | 0.09
96 | A11U U20A | 0.07

Row | Variant | self-cleavage
97 | G35A G36A | 0.17
98 | U20A G44C | 0.16
99 | A14C C45U | 0.08
100 | G19A A25U | 1.66
101 | A25C G40C | 0.06
102 | G7C C46U | 0.08
103 | G1C C46U | 0.18
104 | G33U U34G | 0.05
105 | G35A | 0.16
106 | A6G G35U | 0.08
107 | C13A C31A | 0.06
108 | G2C C10G | 0.03
109 | C23G A26C | 0.88
110 | A25C C31U | 0.12
111 | U9G A16G | 0.07
112 | C3U G44A | 1.07
113 | A11G A12G | 0.02
114 | G21C C42U | 0.36
115 | A12C G17U | 0.02
116 | A12C G17A | 0.01
117 | C8U U34G | 0.22
118 | C10U U20G | 0.18
119 | G1U A41G | 0.1
120 | G19C G30C | 1

Row | Variant | self-cleavage
121 | C18G C37A | 0.07
122 | G33C A41G | 0.04
123 | G7U A39U | 0.1
124 | U9G C15G | 0.43
125 | U38C C46G | 0.64
126 | G7A G35A | 0.3
127 | G5C G33C | 0.03
128 | A6C A11C | 0.05
129 | A25G G44C | 0.19
130 | A4U A11G | 0.04
131 | G22C C42A | 0.13
132 | G5C G22A | 0.08
133 | G29A A41C | 0.05
134 | A12C U38G | 0.03
135 | G30A | 1.87
136 | A4G A24G | 1.09
137 | C23U A25U | 0.93
138 | G40C U43G | 0.41
139 | C13G A25G | 0.11
140 | G7U C46U | 0.03
141 | G1C | 0.13
142 | C3U U20C | 0.15
143 | G1C A41C | 0.02
144 | U28G C46A | 1.1

Row | Variant | self-cleavage
145 | A25G A26U | 0.1
146 | U28A U34C | 0.07
147 | U28A U34A | 0.44
148 | U34C A39G | 0.04
149 | G22C U34G | 0.17
150 | U20G G27U | 0.25
151 | A24U U38G | 0.02
152 | A24U U38C | 1.36
153 | C3G C15A | 0.18
154 | U20G C31U | 0.11
155 | G40U G44U | 0.12
156 | U20A C37G | 0.03
157 | G2C A26U | 0.09
158 | G1A G19C | 1.28
159 | C15G C45G | 0.08
160 | C3G A4C | 0.11
161 | G7C A41G | 0.04
162 | A4C A39U | 0.09
163 | G27A U38A | 0.28
164 | G27A U38G | 0.02
165 | A4C C46A | 0.14
166 | G17C C46G | 0.54
167 | G22U G30U | 1.03
